# Results from patent US20160152729A1 (Novo Nordisk, published 2016).
# Columns and labels:
# human TFPIα = molecular target: T1, human TFPIα (human, UniProt P10646 29-304); experiment: SPR Biacore T200; antibody captured on anti-human IgG Fc; TFPI as analyte; 1:1 model
# T1 construct: recombinant full-length TFPIα in the assays; also called TFPI alpha; full-length TFPIα
# Experimental: (§1) Binding interaction data were obtained by means of Surface Plasmon Resonance in a Biacore T200 instrument. […] chip (GE Healthcare) in flow-cells 1-4 using the amine coupling protocol available with the Biacore T-200 control software version 2.0 (GE Healthcare) and the reagents provided with the Amine Coupling Kit (GE Healthcare). […] Different concentrations of human TFPIα or TFPI (1-79) were tested by diluting the sample in running buffer (10 mM HEPES, pH 7.4, 300 mM NaCl, 5 mM CaCl₂, 0.05% Surfactant P20, 1 mg/ml BSA). Each sample was assayed using 300 seconds of contact time followed by 420-600 seconds of dissociation time at 30 μl/min flow rate. A buffer blank was also assayed. The sensor surface was regenerated with 10 mM Glycine pH 1.7 either for 180 sec at 30 μl/min flow rate or with two cycles each of 30 seconds at 30 μl/min flow rate.
# (§2) The Biacore T200 Evaluation software (version 2.0) was used to analyse the data. Determination of binding constants (kₐ, kd, KD) was obtained assuming a 1:1 interaction of TFPI and the monoclonal antibody of interest.
# human TFPI (1-79) = molecular target: T2, human TFPI (1-79) (human, UniProt P10646 29-107); experiment: as above
# T2 construct: Acidic N-terminal region and KPI-1 domain
# Experimental: as §1, §2
binder,measurement,setting,value
"mAb 0294 (antibody, human IgG4 S228P, kappa, V domains shown, Murine-human chimera of mAb 2F22, human IgG4 (S241P) constant region, human kappa; also called chimeric mAb 2F22) VH: QVQLKQSGPGLVQPSQSLSITCTVSGFSLTNYGVHWVRQSPGKGLEWLAVIWRGGSIDYNAAFMSRLSITKDNSKSQVFFKMNSLQADDTAIYYCAKNSHGNYVGYAMDYWGQGTSVTVSS VL: GIVMTQSQKFMSTTVGDRVSITCKASQSVGPAVAWYQQKPGQSPKLLIYSASNRYTGVPDRFTGSGSGADFTLTISNLHSEDLADYFCQQYTSYPTFGGGTKLEIKR",Kd,human TFPIα,0.46 nM
same,Kd,human TFPI (1-79),0.27 nM
